Biological target: T1, alpha fetoprotein (AFP) (human, UniProt P02771 19-609)
T1 sequence: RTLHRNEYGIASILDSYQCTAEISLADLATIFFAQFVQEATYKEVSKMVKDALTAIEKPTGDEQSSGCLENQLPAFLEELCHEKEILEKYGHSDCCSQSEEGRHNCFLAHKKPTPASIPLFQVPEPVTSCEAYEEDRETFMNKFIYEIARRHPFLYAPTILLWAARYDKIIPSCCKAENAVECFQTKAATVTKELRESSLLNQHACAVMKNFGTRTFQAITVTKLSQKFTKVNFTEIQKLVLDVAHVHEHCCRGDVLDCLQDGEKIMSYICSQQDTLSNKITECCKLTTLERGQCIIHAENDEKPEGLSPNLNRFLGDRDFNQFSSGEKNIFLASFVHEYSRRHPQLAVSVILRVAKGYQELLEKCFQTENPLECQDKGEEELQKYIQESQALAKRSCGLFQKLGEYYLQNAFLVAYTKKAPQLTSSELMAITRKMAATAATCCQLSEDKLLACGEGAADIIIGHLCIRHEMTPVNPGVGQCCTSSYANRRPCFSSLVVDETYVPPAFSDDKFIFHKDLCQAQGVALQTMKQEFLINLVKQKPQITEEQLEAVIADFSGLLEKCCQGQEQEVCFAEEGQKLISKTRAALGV
Assay: plasmon-regulated FRET / LSPR shift aptasensor (Au NR-QDs); 20 ng/mL AFP; LSPR redshift 1.2 nm, fluorescence decrease ~18%; sensor LOD 0.30 ng/mL (not a Kd); aptamer immobilized on Au NR-QDs via glutaraldehyde (room temperature, 2 h, water); AFP binding buffer, pH and temperature not given in the material
Details: protein: commercial

B1: AFP aptamer (ssDNA)
DNA: GTGACGCTCCTAACGCTGACTCAGGTGCAGTTCTCGACTCGGTCTTGATGTGGGTCCTGTCCGTCCGAACCAATC
modifications: 5'-NH2
  binding result: binds
